The target of the assay is T1, extracellular protein domain (position 43-300) of human CD38 (Homo sapiens, UniProt P28907).
T1 construct: human CD38, extracellular domain, position 43-300; also called CD38 (extracellular domain); source: kindly provided by Dr. Hanna Tegel
In words: SPR; ProteOn XPR36; scFv_(CD38) sortase-coupled to a G5-silk coating on bare gold outside the instrument; CD38 extracellular domain (printed: 200 mM) in PBS pH 7.4/0.01% Tween 20 flown at 25 uL/min, 30 min. The conditions noted are these: both partners purified. For orientation: SPR reads the build-up and loss of mass on a sensor chip optically.

B1: scFv_(CD38)-silk (scFv_(CD38) sortase-coupled to the N-terminus of G5-FN-4RepCT), as silk coating (scFv, V domains shown)
VH: QVQLVQSGAEVKKPGSSVKVSCKPSGGTFRSYAISWVRQAPGQGLEWMGRIIVFLGKVNYAQRFQGRVTLTADKSTTTAYMELSSLRSEDTAVYYCTGEPGARDPDAFDIWGQGTMVTVSS
VL: DIQMTQSPSSLSASVGDRVTITCRASQGIRSWLAWYQQKPEKAPKSLIYAASSLQSGVPSRFSGSGSGTDFTLTISSLQPEDFATYYCQQYNNYPLTFGGGTKVEIK
notes: VH of the anti-CD38 scFv; 3xG4S linker, written out from the printed name; VL of the anti-CD38 scFv; what is left of the sortase recognition tag LPETGG after sortase A cleaves between threonine and glycine; the five N-terminal glycines of G5-silk, told in words; 4RepCT, a miniature form of the major ampullate spidroin 1 (MaSp 1) from Euprosthenops australis; The GG-His6 end is lost on coupling; …
For the molecule B1, the binding result is recorded as “binds”.

The values above are taken from publication PMC11840766 (ACS Omega, 2025).
